# Results from paper PMC5261807 (2017).
# Non-standard residues stand in square brackets, D forms with d. Primed or numbered codes have the meaning given here. No end group written: not given here. Me2a″ = asymmetric dimethylarginine (Rme2a); Arg(Me2a) = CN(C)C(=N)NCCC[C@H](N)C(=O)O; Lys(Me3) = C[N+](C)(C)CCCC[C@H](N)C(=O)O; Arg(Me2s) = CN=C(NC)NCCC[C@H](N)C(=O)O; pT = C[C@@H](OP(=O)(O)O)[C@H](N)C(=O)O; Me2a = asymmetric dimethyl (on Arg); Lys(Me2) = CN(C)CCCC[C@H](N)C(=O)O; Me2s = symmetric dimethyl (on Arg); pS = N[C@@H](COP(=O)(O)O)C(=O)O; Lys(Me) = CNCCCC[C@H](N)C(=O)O; Me3″ = trimethyl lysine (Kme3)
# B1: H4 1-19 (peptide)
# chain: SGRGKGGKGLGKGGAKRHR
# modifications: histone peptides carry modifications given inline in the sequence and in columns 4-7 (Kac, Kme1/2/3, Rme2a/s, Cit, pS/pT); N-terminus free or acetylated
# Target: T1, Bdf1 bromodomain 2 (GST-tagged, WT) (Saccharomyces cerevisiae (strain ATCC …, UniProt P35817))
# T1 chain: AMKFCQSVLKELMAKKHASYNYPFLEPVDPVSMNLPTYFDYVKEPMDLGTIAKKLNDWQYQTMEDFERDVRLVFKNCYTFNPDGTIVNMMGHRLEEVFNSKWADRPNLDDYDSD
# Experiment: histone peptide array probed with recombinant GST-bromodomain, signal normalised to myc peptide control
row,Binder,binding score
1,ARTKQTARKSTGGKAPRKQ (A R T K Q T A R Kac S T G G Kac A P R K Q),0.209
2,ARTKQTARKSTGGKAPRKQ (A Rme2s pT Kme2 Q T A R K S T G G K A P R K Q),0
3,SGRGKGGKGLGKGGAKRHR (S G R G K G G K G L G Kac G G A Kac R H R),0.21
4,PRKQLATKAA[Arg(Me2a)]K[pS]APATGG,0
5,ARTKQTARKSTGGKAPRKQ (A R T Kme2 Q T A Rme2s Kme3 S T G G K A P R K Q),0
6,AR(Me2s)TK(Ac)QTAR(Me2s)K(Me)STGGKAPRKQ,0.00561
7,RKSAPATGGVKKPHRYRPG (R K S A P A T G G V Kme2 K P H R Y R P G) [H3 26-45],0
8,ARTKQTARKSTGGKAPRKQ (A R T Kac Q T A Rme2a Kme1 S T G G K A P R K Q),0.00423
9,A[Arg(Me2a)]TKQTARKSTGGKAPRKQ,0.00462
10,ARTKQTARKSTGGKAPRKQ (A R T Kac Q T A Rme2s Kme3 S T G G K A P R K Q),0.00482
11,PRKQLATKAARK(Ac)SAPATGG,0.00915
12,A[Arg(Me2s)]T[Lys(Me3)]QTA[Arg(Me2s)][Lys(Me3)]STGGKAPRKQ,0
13,ARTKQTARKSTGGKAPRKQ (A Rme2s T Kme1 Q T A Rme2a Kme3 S T G G K A P R K Q),0
14,ARTKQTARKSTGGKAPRKQ (A Rme2a T Kme1 Q T A Rme2a Kme3 S T G G K A P R K Q),0.00285
15,SGRGKGGKGLGKGGAKRHR (S G R G K G G Kac G L G K G G A K R H R),0.0237
16,PRKQLATKAAR[Lys(Me3)][pS]APATGG,0
17,AR[pT][Lys(Me2)]QTARKSTGGKAPRKQ,0.00895
18,ARTKQTARKSTGGKAPRKQ (A Rme2s T Kme3 Q T A Rme2s Kac S T G G K A P R K Q),0.0385
19,ARTKQTARKSTGGKAPRKQ (A R T K Q T A Rme2a K S T G G K A P R K Q),0
20,SGRGKGGKGLGKGGAKRHR (S G Rme2s G Kac G G Kac G L G K G G A K R H R),0.275
21,A[Arg(Me2s)]T[Lys(Me3)]QTAR[Lys(Me)]STGGKAPRKQ,0.00895
22,ARTKQTARKSTGGKAPRKQ (A Rme2a T Kme1 Q T A R Kme2 S T G G K A P R K Q),0.0062
23,ARTKQTA[Arg(Me2s)][Lys(Me2)]S[pT]GGKAPRKQ,0.00915
24,ARTKQTARKSTGGKAPRKQ (A Rme2s T Kac Q T A Rme2s Kme3 S T G G K A P R K Q),0.00521
25,ARTKQTARKSTGGKAPRKQ (A R T Kme1 Q T A Rme2s Kac S T G G K A P R K Q),0.0265

row,Binder,binding score
1,A[Arg(Me2s)][pT]K(Ac)QTARKSTGGKAPRKQ,0.0206
2,ARTKQTARKSTGGKAPRKQ (A R T K Q T A R Kac S T G G K A P R K Q),0.00364
3,ARTKQTA[Arg(Me2a)][Lys(Me3)][pS]TGGKAPRKQ,0
4,A[Arg(Me2s)][pT]KQTARKSTGGKAPRKQ,0.00502
5,B1,0
6,A[Arg(Me2a)]T[Lys(Me)]QTARK(Ac)STGGKAPRKQ,0.00207
7,SGRGKGGKGLGKGGAKRHR (S G Rme2a G Kac G G K G L G K G G A K R H R),0.0707
8,PRKQLATKAAR(Me2a″)K(Me3″)SAPATGG,0.00167
9,PDPAKSAPAPKKGSKKAVT (not fully specified) [H2B 1-19],0.00266
10,ARTKQTAR(Me2a)K(Me)STGGKAPRKQ,0
11,A[Arg(Me2a)][pT][Lys(Me2)]QTARKSTGGKAPRKQ,0.00246
12,SGRGKGGKGLGKGGAKRHR (S G Rme2a G K G G K G L G K G G A K R H R),0.00305
13,A[Arg(Me2s)]T[Lys(Me3)]QTA[Arg(Me2a)][Lys(Me2)]STGGKAPRKQ,0
14,ARTKQTARKSTGGKAPRKQ (A Rme2a T Kme3 Q T A Rme2a Kme1 S T G G K A P R K Q),0
15,ARTKQTARKSTGGKAPRKQ (A R T Kme2 Q T A R K S T G G K A P R K Q),0.006
16,SGRGKGGKGLGKGGAKRHR (S G R G Kac G G Kac G L G Kac G G A Kac R H R),0.944
17,ARTKQTARKSTGGKAPRKQ (A Rme2a T Kme2 Q T A Rme2a Kme1 S T G G K A P R K Q),0
18,ARTKQTA[Arg(Me2a)]K[pS]TGGKAPRKQ,0
19,PRKQLATKAA[Arg(Me2a)][Lys(Me2)]SAPATGG,0
20,ART[Lys(Me3)]QTA[Arg(Me2s)][Lys(Me2)]STGGKAPRKQ,0.00561
21,AR[pT]K(Me)QTARKSTGGKAPRKQ,0.00679
22,AR(Me2a″)TK(Ac)QTAR(Me2a″)K(Ac)STGGKAPRKQ,0.0867
23,ARTKQTA[Arg(Me2a)]KS[pT]GGKAPRKQ,0
24,SGRGKGGKGLGKGGAKRHR (S G Rme2a G K G G Kac G L G K G G A K R H R),0.0345
25,ARTKQTARKSTGGKAPRKQ (A R T Kme1 Q T A Rme2s Kme2 S T G G K A P R K Q),0.00364

# Target: T2, Bdf1 bromodomain 1 (GST-tagged, WT) (Saccharomyces cerevisiae (strain ATCC …, UniProt P35817))
# T2 chain: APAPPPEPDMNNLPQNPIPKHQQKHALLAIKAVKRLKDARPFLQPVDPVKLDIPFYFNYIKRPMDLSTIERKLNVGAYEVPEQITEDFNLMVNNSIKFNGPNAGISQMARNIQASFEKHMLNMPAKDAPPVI
# Experiment: as above
row,Binder,binding score
1,ARTKQTARKSTGGKAPRKQ (A R T K Q T A R Kac S T G G Kac A P R K Q),0.108
2,ARTKQTARKSTGGKAPRKQ (A Rme2s pT Kme2 Q T A R K S T G G K A P R K Q),0
3,SGRGKGGKGLGKGGAKRHR (S G R G K G G K G L G Kac G G A Kac R H R),0.206
4,PRKQLATKAA[Arg(Me2a)]K[pS]APATGG,0
5,ARTKQTARKSTGGKAPRKQ (A R T Kme2 Q T A Rme2s Kme3 S T G G K A P R K Q),0.00592
6,AR(Me2s)TK(Ac)QTAR(Me2s)K(Me)STGGKAPRKQ,0.00161
7,RKSAPATGGVKKPHRYRPG (R K S A P A T G G V Kme2 K P H R Y R P G) [H3 26-45],0
8,ARTKQTARKSTGGKAPRKQ (A R T Kac Q T A Rme2a Kme1 S T G G K A P R K Q),0.00323
9,A[Arg(Me2a)]TKQTARKSTGGKAPRKQ,0.0095
10,ARTKQTARKSTGGKAPRKQ (A R T Kac Q T A Rme2s Kme3 S T G G K A P R K Q),0.00287
11,PRKQLATKAARK(Ac)SAPATGG,0
12,A[Arg(Me2s)]T[Lys(Me3)]QTA[Arg(Me2s)][Lys(Me3)]STGGKAPRKQ,0.00789
13,ARTKQTARKSTGGKAPRKQ (A Rme2s T Kme1 Q T A Rme2a Kme3 S T G G K A P R K Q),0.00628
14,ARTKQTARKSTGGKAPRKQ (A Rme2a T Kme1 Q T A Rme2a Kme3 S T G G K A P R K Q),0.00197
15,SGRGKGGKGLGKGGAKRHR (S G R G K G G Kac G L G K G G A K R H R),0.0203
16,PRKQLATKAAR[Lys(Me3)][pS]APATGG,0
17,AR[pT][Lys(Me2)]QTARKSTGGKAPRKQ,0.00161
18,ARTKQTARKSTGGKAPRKQ (A Rme2s T Kme3 Q T A Rme2s Kac S T G G K A P R K Q),0.0104
19,ARTKQTARKSTGGKAPRKQ (A R T K Q T A Rme2a K S T G G K A P R K Q),0
20,SGRGKGGKGLGKGGAKRHR (S G Rme2s G Kac G G Kac G L G K G G A K R H R),0.123
21,A[Arg(Me2s)]T[Lys(Me3)]QTAR[Lys(Me)]STGGKAPRKQ,0
22,ARTKQTARKSTGGKAPRKQ (A Rme2a T Kme1 Q T A R Kme2 S T G G K A P R K Q),0.00538
23,ARTKQTA[Arg(Me2s)][Lys(Me2)]S[pT]GGKAPRKQ,0.0052
24,ARTKQTARKSTGGKAPRKQ (A Rme2s T Kac Q T A Rme2s Kme3 S T G G K A P R K Q),0.00538

row,Binder,binding score
1,ARTKQTARKSTGGKAPRKQ (A R T Kme1 Q T A Rme2s Kac S T G G K A P R K Q),0.0247
2,A[Arg(Me2s)][pT]K(Ac)QTARKSTGGKAPRKQ,0.0231
3,ARTKQTARKSTGGKAPRKQ (A R T K Q T A R Kac S T G G K A P R K Q),0.000897
4,ARTKQTA[Arg(Me2a)][Lys(Me3)][pS]TGGKAPRKQ,0
5,A[Arg(Me2s)][pT]KQTARKSTGGKAPRKQ,0
6,B1,0.00897
7,A[Arg(Me2a)]T[Lys(Me)]QTARK(Ac)STGGKAPRKQ,0.00699
8,SGRGKGGKGLGKGGAKRHR (S G Rme2a G Kac G G K G L G K G G A K R H R),0
9,PRKQLATKAAR(Me2a″)K(Me3″)SAPATGG,0
10,PDPAKSAPAPKKGSKKAVT (not fully specified) [H2B 1-19],0
11,A[Arg(Me2a)][pT][Lys(Me2)]QTARKSTGGKAPRKQ,0
12,SGRGKGGKGLGKGGAKRHR (S G Rme2a G K G G K G L G K G G A K R H R),0.0247
13,A[Arg(Me2s)]T[Lys(Me3)]QTA[Arg(Me2a)][Lys(Me2)]STGGKAPRKQ,0.00197
14,A[Arg(Me2a)][pT]KQTARKSTGGKAPRKQ,0
15,ARTKQTARKSTGGKAPRKQ (A Rme2a T Kme3 Q T A Rme2a Kme1 S T G G K A P R K Q),0
16,ARTKQTARKSTGGKAPRKQ (A R T Kme2 Q T A R K S T G G K A P R K Q),0
17,SGRGKGGKGLGKGGAKRHR (S G R G Kac G G Kac G L G Kac G G A Kac R H R),0.561
18,ARTKQTARKSTGGKAPRKQ (A Rme2a T Kme2 Q T A Rme2a Kme1 S T G G K A P R K Q),0.00897
19,PRKQLATKAA[Arg(Me2a)][Lys(Me2)]SAPATGG,0.00789
20,ART[Lys(Me3)]QTA[Arg(Me2s)][Lys(Me2)]STGGKAPRKQ,0.00628
21,AR[pT]K(Me)QTARKSTGGKAPRKQ,0
22,AR(Me2a″)TK(Ac)QTAR(Me2a″)K(Ac)STGGKAPRKQ,0.0387
23,SGRGKGGKGLGKGGAKRHR (S G Rme2a G K G G Kac G L G K G G A K R H R),0.0183
24,ARTKQTARKSTGGKAPRKQ (A R T Kme1 Q T A Rme2s Kme2 S T G G K A P R K Q),0.00879
